Measured values as given in US20130302348A1 (MIT, published 2013).

Target: biotinylated H5 (A/Vietnam/1203/2004) HA polypeptide (influenza virus A/Vietnam/1203/2004, UniProt Q8QPL1 17-531)

B1: exemplary antibody (VH-1 combined with VL-1; Table 4) (antibody, V domains shown)
VH: EVQLLESGGGLVKPGQSLKLSCAASGFTFTSYGMHWVRQPPGKGLEWVAVISYDGSYKYYADSVQGRFTISRDNSKNTLYLQMNSLRAEDTAVYYCAKDSELRSLLYFEWLSQGYFNPWGAGTTLTVSS
VL: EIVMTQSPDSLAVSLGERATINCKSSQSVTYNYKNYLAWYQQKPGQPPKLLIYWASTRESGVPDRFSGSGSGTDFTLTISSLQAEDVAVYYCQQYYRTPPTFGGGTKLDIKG
notes: also called exemplary influenza antibody
B1 showed a Kd of 30 pM, a koff of 7.38e-06 s⁻¹ and a kon of 247000 M⁻¹ s⁻¹.
